Assay results: patent US20080044360A1 (COLLAGEN MEDICAL, published 2008)
Bridge positions count the residues as written; N and C are the ends. Square brackets hold non-standard residues; d marks the D form. Ends that are not written are not given here. NMeA = CN[C@@H](C)C(=O)O; Sar = CNCC(=O)O

B1: SEQ ID NO 174 (peptide)
peptide: QWTCSGDEYTW[dH]CNYE
modifications: disulfide 4-13 (inferred); not fully specified (N-terminus); printed as QWTCSGDEYTWhCNYE
notes: cyclic, disulfide
B2: SEQ ID NO 105 (peptide)
peptide: YHACYQ[NMeA]GCWIW
modifications: disulfide 4-9 (inferred)
notes: cyclic, disulfide; also called YHACYQA'GCWIW
B3: SEQ ID NO 109 (peptide)
peptide: YSACYQAGCWIW
modifications: disulfide 4-9 (inferred)
notes: cyclic, disulfide
B4: SEQ ID NO 134 (peptide)
peptide: YHACYAAGCWIW
modifications: disulfide 4-9 (inferred)
notes: cyclic, disulfide
B5: SEQ ID NO 131 (peptide)
peptide: AHACYQAGCWIW
modifications: disulfide 4-9 (inferred)
notes: cyclic, disulfide
B6: SEQ ID NO 135 (peptide)
peptide: YHACYQAACWIW
modifications: disulfide 4-9 (inferred)
notes: cyclic, disulfide
B7: SEQ ID NO 167 (peptide)
peptide: QWT[dC]SGDEYTWHCNYE
modifications: disulfide 4-13 (inferred); not fully specified (N-terminus, C-terminus); printed as QWTcSGDEYTWHCNYE
notes: cyclic, disulfide
B8: SEQ ID NO 104 (peptide)
peptide: YHACYQA[Sar]CWIW
modifications: disulfide 4-9 (inferred)
notes: cyclic, disulfide
B9: SEQ ID NO 132 (peptide)
peptide: YAACYQAGCWIW
modifications: disulfide 4-9 (inferred)
notes: cyclic, disulfide
B10: SEQ ID NO 136 (peptide)
peptide: YHACYQAGCAIW
modifications: disulfide 4-9 (inferred)
notes: cyclic, disulfide
B11: SEQ ID NO 108 (peptide)
peptide: YHACYQAGCYIY
modifications: disulfide 4-9 (inferred)
notes: cyclic, disulfide
B12: SEQ ID NO 106 (peptide)
peptide: YHACYQAGCWIY
modifications: disulfide 4-9 (inferred)
notes: cyclic, disulfide
B13: SEQ ID NO 110 (peptide)
peptide: YSACYQAGCYIY
modifications: disulfide 4-9 (inferred)
notes: cyclic, disulfide
B14: SEQ ID NO 147 (peptide)
peptide: GQWTCSGDEYTAHCNYE
modifications: disulfide 5-14 (inferred); not fully specified (C-terminus)
notes: cyclic, disulfide
B15: SEQ ID NO 159 (peptide)
peptide: YHACYQAG[dC]WIW
modifications: disulfide 4-9 (inferred); not fully specified (C-terminus); printed as YHACYQAGcWIW
notes: cyclic, disulfide
B16: SEQ ID NO 50 (peptide)
peptide: KWFCELMQDQWQCGSK
modifications: disulfide 4-13 (inferred)
notes: cyclic, disulfide
B17: SEQ ID NO 51 (peptide)
peptide: KWFCELMHDQWQCGSK
modifications: disulfide 4-13 (inferred)
notes: cyclic, disulfide
B18: SEQ ID NO 76 (peptide)
peptide: FGACDIFPTFHTCPGV
modifications: disulfide 4-13 (inferred)
notes: cyclic, disulfide
B19: SEQ ID NO 56 (peptide)
peptide: SWNCHMIRNEWRCTGH
modifications: disulfide 4-13 (inferred)
notes: cyclic, disulfide
B20: SEQ ID NO 46 (peptide)
peptide: GWVCLQKGPKWVCDWD
modifications: disulfide 4-13 (inferred)
notes: cyclic, disulfide
B21: SEQ ID NO 62 (peptide)
peptide: HWSCYLGDNGWNCHDR
modifications: disulfide 4-13 (inferred)
notes: cyclic, disulfide
B22: SEQ ID NO 52 (peptide)
peptide: RWSCWLDENGWKCDGT
modifications: disulfide 4-13 (inferred)
notes: cyclic, disulfide
B23: SEQ ID NO 63 (peptide)
peptide: NWYCSQALDNWSCKLR
modifications: disulfide 4-13 (inferred)
notes: cyclic, disulfide
B24: SEQ ID NO 69 (peptide)
peptide: HWQCGEKMSFWSCELV
modifications: disulfide 4-13 (inferred)
notes: cyclic, disulfide
B25: SEQ ID NO 59 (peptide)
peptide: HWQCRLTDYGWNCDER
modifications: disulfide 4-13 (inferred)
notes: cyclic, disulfide
B26: SEQ ID NO 48 (peptide)
peptide: AWSCWIVEGRWNCSDI
modifications: disulfide 4-13 (inferred)
notes: cyclic, disulfide
B27: SEQ ID NO 89 (peptide)
peptide: KWHCELDSHMEWSCSGH
modifications: disulfide 4-14 (inferred)
notes: cyclic, disulfide
B28: SEQ ID NO 92 (peptide)
peptide: TWACGWTTTGWDNCRWI
modifications: disulfide 4-14 (inferred)
notes: cyclic, disulfide
B29: SEQ ID NO 79 (peptide)
peptide: FWTCELDFRQSWYCYDK
modifications: disulfide 4-14 (inferred)
notes: cyclic, disulfide
B30: SEQ ID NO 72 (peptide)
peptide: EWHCVFIQGDWLCNSG
modifications: disulfide 4-13 (inferred)
notes: cyclic, disulfide
B31: SEQ ID NO 61 (peptide)
peptide: KWSCYMVDHQWYCREF
modifications: disulfide 4-13 (inferred)
notes: cyclic, disulfide
B32: SEQ ID NO 58 (peptide)
peptide: GWVCMMRETDWNCSI
modifications: disulfide 4-13 (inferred)
notes: cyclic, disulfide
B33: SEQ ID NO 54 (peptide)
peptide: MWNCTMTKSGWRCFEK
modifications: disulfide 4-13 (inferred)
notes: cyclic, disulfide
B34: SEQ ID NO 78 (peptide)
peptide: TWACDLDEYGGWQCYTG
modifications: disulfide 4-14 (inferred)
notes: cyclic, disulfide
B35: SEQ ID NO 47 (peptide)
peptide: PWTCRMTENTWVCDLN
modifications: disulfide 4-13 (inferred)
notes: cyclic, disulfide
B36: SEQ ID NO 71 (peptide)
peptide: SWHCALMGSRWVCGQN
modifications: disulfide 4-13 (inferred)
notes: cyclic, disulfide
B37: SEQ ID NO 87 (peptide)
peptide: HWTCDQAKGGAWSCSST
modifications: disulfide 4-14 (inferred)
notes: cyclic, disulfide
B38: SEQ ID NO 64 (peptide)
peptide: TWICSHNDKGWTCGDQ
modifications: disulfide 4-13 (inferred)
notes: cyclic, disulfide
B39: SEQ ID NO 60 (peptide)
peptide: EWHCVLNDFRWTCGGD
modifications: disulfide 4-13 (inferred)
notes: cyclic, disulfide
B40: SEQ ID NO 90 (peptide)
peptide: TWACGWTTTGWDNCRWI
modifications: disulfide 4-14 (inferred)
notes: cyclic, disulfide
B41: SEQ ID NO 91 (peptide)
peptide: TWACGWTTAGWDNCRWI
modifications: disulfide 4-14 (inferred)
notes: cyclic, disulfide
B42: SEQ ID NO 49 (peptide)
peptide: AWFCSQKNRLWSCGET
modifications: disulfide 4-13 (inferred)
notes: cyclic, disulfide
B43: SEQ ID NO 86 (peptide)
peptide: SWYCDWDDRKGWMCGSD
modifications: disulfide 4-14 (inferred)
notes: cyclic, disulfide
B44: SEQ ID NO 55 (peptide)
peptide: SWNCHWRNQGWLCSGG
modifications: disulfide 4-13 (inferred)
notes: cyclic, disulfide
B45: SEQ ID NO 75 (peptide)
peptide: ERNCVLNDFRWTCGGD
modifications: disulfide 4-13 (inferred)
notes: cyclic, disulfide
B46: SEQ ID NO 70 (peptide)
peptide: FWRCALLDGHWQCTDH
modifications: disulfide 4-13 (inferred)
notes: cyclic, disulfide
B47: SEQ ID NO 73 (peptide)
peptide: SWHCALVENSWQCSEA
modifications: disulfide 4-13 (inferred)
notes: cyclic, disulfide
B48: SEQ ID NO 88 (peptide)
peptide: FWTCMRDQVGEWHCGTE
modifications: disulfide 4-14 (inferred)
notes: cyclic, disulfide
B49: SEQ ID NO 77 (peptide)
peptide: GWQCQGTDSLDWKCLYM
modifications: disulfide 4-14 (inferred)
notes: cyclic, disulfide
B50: SEQ ID NO 57 (peptide)
peptide: RWTCDLQRGDWQCSTI
modifications: disulfide 4-13 (inferred)
notes: cyclic, disulfide
B51: SEQ ID NO 53 (peptide)
peptide: GWFCKLVDGNWECSTK
modifications: disulfide 4-13 (inferred)
notes: cyclic, disulfide
B52: SEQ ID NO 4 (peptide)
peptide: TWMCVDPPLWRCWVQ
modifications: disulfide 4-12 (inferred)
notes: cyclic, disulfide

molecular target: T1, rat collagen, acid soluble, type I, rat tail (Upstate 08-115) (rat, UniProt P02454 152-1207; P02466 86-1125); assay: dried collagen assay
T1 construct: tissue extract, gelled and dried in wells; also called dried rat collagen
T1 sequence (P02454 152-1207, chain 1 of 2): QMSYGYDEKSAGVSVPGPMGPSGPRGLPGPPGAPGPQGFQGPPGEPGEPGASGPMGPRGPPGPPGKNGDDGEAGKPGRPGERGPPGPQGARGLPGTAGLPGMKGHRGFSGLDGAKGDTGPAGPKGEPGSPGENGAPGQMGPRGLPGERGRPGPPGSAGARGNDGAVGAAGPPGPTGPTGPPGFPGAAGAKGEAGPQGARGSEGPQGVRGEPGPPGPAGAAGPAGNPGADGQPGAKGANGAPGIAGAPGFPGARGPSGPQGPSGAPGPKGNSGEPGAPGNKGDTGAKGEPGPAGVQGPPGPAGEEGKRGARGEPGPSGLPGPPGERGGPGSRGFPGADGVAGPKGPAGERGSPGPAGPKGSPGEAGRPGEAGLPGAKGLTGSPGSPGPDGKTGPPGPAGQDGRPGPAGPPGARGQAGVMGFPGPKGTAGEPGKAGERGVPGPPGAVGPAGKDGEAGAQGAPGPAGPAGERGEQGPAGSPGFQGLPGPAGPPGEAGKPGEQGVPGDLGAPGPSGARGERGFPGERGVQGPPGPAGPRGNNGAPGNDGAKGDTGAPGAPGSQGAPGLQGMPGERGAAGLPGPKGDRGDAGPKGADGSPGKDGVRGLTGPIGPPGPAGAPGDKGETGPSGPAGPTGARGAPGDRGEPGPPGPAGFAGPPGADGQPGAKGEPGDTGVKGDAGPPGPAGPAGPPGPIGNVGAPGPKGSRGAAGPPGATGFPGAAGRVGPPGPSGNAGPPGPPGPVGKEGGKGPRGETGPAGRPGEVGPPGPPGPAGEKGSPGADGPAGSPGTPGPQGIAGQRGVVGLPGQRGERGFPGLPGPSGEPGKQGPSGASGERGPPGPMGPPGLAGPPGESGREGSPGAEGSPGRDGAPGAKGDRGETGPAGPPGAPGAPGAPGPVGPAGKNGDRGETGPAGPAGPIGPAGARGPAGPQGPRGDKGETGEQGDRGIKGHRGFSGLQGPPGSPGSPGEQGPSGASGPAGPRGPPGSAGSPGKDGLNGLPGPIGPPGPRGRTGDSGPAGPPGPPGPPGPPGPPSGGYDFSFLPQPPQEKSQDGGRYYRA
T1 sequence (P02466 86-1125, chain 2 of 2): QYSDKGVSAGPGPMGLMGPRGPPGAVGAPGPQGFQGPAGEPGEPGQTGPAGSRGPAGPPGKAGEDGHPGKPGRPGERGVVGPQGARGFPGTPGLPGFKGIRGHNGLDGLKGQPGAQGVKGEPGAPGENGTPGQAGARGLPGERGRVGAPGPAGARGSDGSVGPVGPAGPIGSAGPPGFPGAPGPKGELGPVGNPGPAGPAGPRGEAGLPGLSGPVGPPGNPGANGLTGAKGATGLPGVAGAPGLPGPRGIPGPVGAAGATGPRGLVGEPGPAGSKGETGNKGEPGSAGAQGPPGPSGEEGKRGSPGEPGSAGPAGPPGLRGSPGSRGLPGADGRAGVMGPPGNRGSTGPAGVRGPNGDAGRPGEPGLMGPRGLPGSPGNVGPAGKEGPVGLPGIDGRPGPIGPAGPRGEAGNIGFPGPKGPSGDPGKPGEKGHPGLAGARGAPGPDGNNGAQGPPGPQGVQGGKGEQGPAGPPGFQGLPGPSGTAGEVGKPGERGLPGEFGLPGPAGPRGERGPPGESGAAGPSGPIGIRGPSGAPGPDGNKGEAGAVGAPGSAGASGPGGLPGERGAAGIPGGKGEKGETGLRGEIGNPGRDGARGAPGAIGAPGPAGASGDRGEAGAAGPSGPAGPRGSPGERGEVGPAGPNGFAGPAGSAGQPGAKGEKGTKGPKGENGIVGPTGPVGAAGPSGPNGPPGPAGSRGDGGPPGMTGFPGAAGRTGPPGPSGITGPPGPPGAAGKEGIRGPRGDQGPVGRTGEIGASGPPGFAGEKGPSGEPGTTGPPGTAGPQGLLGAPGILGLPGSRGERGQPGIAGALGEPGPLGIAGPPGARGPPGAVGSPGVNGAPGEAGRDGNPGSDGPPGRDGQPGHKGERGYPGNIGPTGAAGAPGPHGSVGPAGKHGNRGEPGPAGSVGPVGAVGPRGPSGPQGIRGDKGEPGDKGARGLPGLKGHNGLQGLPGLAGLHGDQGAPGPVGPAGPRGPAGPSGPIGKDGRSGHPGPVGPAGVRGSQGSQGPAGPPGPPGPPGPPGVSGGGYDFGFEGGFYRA
Experimental: (§1) An additional 90 μL is reserved in a HPLC glass vial as a measure of the total concentration.

% bound | Binder
0% | B1
23% | B2
37% | B3
1% | B4
12% | B5
88% | B6
0% | B7
19% | B8
37% | B9
2% | B10
12% | B11
24% | B12
2% | B13
1% | B14
27% | B15

molecular target: T2, human collagen type I, acid soluble, extracted from placenta (Sigma C7774) (human, UniProt P02452 162-1218; P08123 80-1119); assay: dried collagen assay
T2 construct: tissue extract, gelled and dried in wells; also called dried human collagen; h-Collagen
T2 sequence (P02452 162-1218 limits assumed, chain 1 of 2): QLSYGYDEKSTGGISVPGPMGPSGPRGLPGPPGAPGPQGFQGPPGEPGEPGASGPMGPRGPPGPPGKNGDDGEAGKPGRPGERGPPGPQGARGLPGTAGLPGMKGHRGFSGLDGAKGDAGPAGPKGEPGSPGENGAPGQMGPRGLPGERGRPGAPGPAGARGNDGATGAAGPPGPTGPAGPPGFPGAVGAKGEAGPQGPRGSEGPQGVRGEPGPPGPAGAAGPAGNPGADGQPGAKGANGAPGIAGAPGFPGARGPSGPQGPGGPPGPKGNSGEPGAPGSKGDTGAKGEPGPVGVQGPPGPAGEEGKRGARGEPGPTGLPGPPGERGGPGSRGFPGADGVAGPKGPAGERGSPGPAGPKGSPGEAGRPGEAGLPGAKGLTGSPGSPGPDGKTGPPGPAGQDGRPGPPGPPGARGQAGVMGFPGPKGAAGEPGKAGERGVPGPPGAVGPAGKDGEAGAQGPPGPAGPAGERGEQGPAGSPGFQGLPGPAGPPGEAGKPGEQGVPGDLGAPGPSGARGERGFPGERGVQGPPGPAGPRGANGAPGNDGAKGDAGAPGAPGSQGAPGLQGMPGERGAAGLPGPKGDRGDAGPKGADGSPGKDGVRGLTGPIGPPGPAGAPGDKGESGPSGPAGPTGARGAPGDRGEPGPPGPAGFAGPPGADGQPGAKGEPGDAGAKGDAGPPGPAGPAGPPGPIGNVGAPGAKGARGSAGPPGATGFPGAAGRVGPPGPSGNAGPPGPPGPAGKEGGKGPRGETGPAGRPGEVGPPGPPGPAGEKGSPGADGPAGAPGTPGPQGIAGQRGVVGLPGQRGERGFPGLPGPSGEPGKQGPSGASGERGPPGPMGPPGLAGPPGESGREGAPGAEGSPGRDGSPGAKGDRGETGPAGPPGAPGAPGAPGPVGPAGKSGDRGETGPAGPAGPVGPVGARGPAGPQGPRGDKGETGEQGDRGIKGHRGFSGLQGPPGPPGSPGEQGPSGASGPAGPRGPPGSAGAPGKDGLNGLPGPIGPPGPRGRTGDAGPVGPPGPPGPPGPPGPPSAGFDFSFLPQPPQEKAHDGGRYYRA
T2 sequence (P08123 80-1119 limits assumed, chain 2 of 2): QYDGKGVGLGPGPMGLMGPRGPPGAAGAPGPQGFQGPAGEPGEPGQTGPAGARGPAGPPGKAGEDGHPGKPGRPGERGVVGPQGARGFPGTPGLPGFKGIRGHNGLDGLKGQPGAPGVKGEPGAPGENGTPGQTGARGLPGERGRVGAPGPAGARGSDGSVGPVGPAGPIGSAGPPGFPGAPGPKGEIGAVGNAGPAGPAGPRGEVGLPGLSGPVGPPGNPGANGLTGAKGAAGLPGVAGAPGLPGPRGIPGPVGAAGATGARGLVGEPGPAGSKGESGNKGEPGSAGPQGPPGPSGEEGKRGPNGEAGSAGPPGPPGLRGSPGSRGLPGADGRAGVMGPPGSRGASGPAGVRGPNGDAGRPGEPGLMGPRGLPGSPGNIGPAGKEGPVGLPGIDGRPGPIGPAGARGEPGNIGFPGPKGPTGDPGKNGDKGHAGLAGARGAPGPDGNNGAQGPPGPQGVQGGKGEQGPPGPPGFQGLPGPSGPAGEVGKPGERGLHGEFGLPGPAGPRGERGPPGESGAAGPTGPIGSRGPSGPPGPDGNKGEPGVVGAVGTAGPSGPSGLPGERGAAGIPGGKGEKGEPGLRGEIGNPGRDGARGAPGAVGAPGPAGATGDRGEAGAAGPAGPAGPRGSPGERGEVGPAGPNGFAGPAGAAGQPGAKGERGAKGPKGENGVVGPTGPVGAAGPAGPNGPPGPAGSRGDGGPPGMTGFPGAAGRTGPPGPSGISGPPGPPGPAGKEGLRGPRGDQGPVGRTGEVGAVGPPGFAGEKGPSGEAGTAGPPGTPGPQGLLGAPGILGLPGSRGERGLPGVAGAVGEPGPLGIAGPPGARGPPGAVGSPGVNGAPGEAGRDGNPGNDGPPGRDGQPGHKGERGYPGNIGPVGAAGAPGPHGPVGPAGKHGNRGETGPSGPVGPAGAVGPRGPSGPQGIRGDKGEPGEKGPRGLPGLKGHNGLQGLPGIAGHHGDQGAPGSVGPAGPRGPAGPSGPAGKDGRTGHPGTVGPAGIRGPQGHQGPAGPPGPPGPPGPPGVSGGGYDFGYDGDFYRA
Experimental: as §1

% bound | Binder
18% | B16
18% | B17
1% | B18
11% | B19
23% | B20
9% | B21
15% | B22
8% | B23
3% | B24
10% | B25
22% | B26
1% | B27
34% | B28
8% | B29
1% | B30
9% | B31
10% | B32
12% | B33
8% | B34
22% | B35
3% | B36
9% | B2
1% | B37
8% | B38

% bound | Binder
10% | B39
34% | B40
28% | B41
19% | B42
2% | B43
12% | B44
10% | B45
21% | B3
14% | B4
7% | B5
72% | B6
3% | B46
1% | B47
1% | B48
12% | B49
12% | B8
53% | B9
2% | B10
9% | B12
10% | B13
11% | B50
12% | B51
45% | B52
